Reference: article PMC4803054 (Genes & Development, 2016)

T1: Mte1 (GST tag cleaved off) (S. cerevisiae, UniProt P53227 1-271)
T1 sequence (looked up): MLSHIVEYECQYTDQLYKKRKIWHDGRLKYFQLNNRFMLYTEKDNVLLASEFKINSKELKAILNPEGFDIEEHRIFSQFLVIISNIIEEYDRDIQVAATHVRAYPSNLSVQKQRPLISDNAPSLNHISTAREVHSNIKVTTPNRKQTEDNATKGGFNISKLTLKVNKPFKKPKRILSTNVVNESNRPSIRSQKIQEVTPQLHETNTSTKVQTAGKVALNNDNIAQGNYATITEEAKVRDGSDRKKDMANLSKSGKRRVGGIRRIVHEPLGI

B1: MBP-tagged Mph1(754–993) (domain or fragment, S. cerevisiae, UniProt P40562 754-993, looked up)
chain: SNENPSKKRKIFKALDNLENDSTEEASSSLETEDEEVSDDNNVFIAEGQNGCQKDLETAIIRTGESLTTLKPLHNFERPNMALFVNDCGLPTKIEKNVKDIRGNQHNLEKEKSCTVDKNNMVLSLDDWNFFRNRYIPEGVSFDVEPNFVQYTKGVKVPHCHKVSKIITLFNDESNDNKKRTIDMNYTKCLARGMLRDEKKFVKVNDKSQVDNNSVNHDSSQSFTLSNAELDDILGSDSDF
B2: GST-Mte1 fragment 201-271 (domain or fragment)
chain: LHETNTSTKVQTAGKVALNNDNIAQGNYATITEEAKVRDGSDRKKDMANLSKSGKRRVGGIRRIVHEPLGI

Legend:
Test in all cases: pull-down
[1] = target: T1, Mte1 (GST tag cleaved off)
MHF complex (Mhf1-Mhf2) = MHF complex (Mhf1-Mhf2) (S. cerevisiae, UniProt Q3E835 1-90; Q3E829 1-80)
Mph1-MHF complex = Mph1-MHF complex (S. cerevisiae, UniProt P40562 1-993; Q3E835 1-90; Q3E829 1-80)

binding result [1] | binding result (MHF complex (Mhf1-Mhf2)) | binding result (Mph1-MHF complex) | Binder
binds | binds |  | B1
 |  | binds | B2
